± gives the uncertainty stated by the source.

Data on 131 substances can be found in the supplement of paper PMC12042874.

The nature of this series: amyloid nucleation score (Sup35N fusion, yeast selection) (log enrichment); library NNK3; higher = more nucleation; inactive = no reads after selection. Summed up: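 Peptides of 20 random codons fused to Sup35N were expressed in psi-negative yeast, induced 24 hours with 100 μM copper sulfate, then grown 7 days at 30°C on medium lacking adenine and uracil. Input and output plasmid inserts were Illumina-sequenced. Nucleation score is the DiMSum log enrichment of output over input reads, centred on the mode score of non-aggregating sequences, excluding sequences with under 100 input reads. Random libraries had three technical output replicates.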
As for HYTHSNLQAPDPH, the amyloid nucleation score entry is “inactive”.

QFCSI: the amyloid nucleation score entry was “inactive”. Regarding QRFYILPRQCNALKGIITSL, the amyloid nucleation score result is “inactive”.

Consider FHFFYYTLFNCHHGLFTSFF, for which the amyloid nucleation score result was “inactive”. In the case of YISCMCANIRNIFVISIH, the amyloid nucleation score worked out at 1.81 ± 0.08.

In the case of MVMPGMFGSLRREWHSFFRM, the amyloid nucleation score result was “inactive”. In the case of RSELASLKGCDIELVFTYQR, the amyloid nucleation score entry is “inactive”. For DDLRYRNE the value was “inactive”.

In the case of MFSLNVYMGDTIVVHQGFTD, the amyloid nucleation score is 2.77 ± 0.058. ILTLTSRPLLLNLKKPFWVF: the amyloid nucleation score result was “inactive”. With SQRELYH, the amyloid nucleation score result was “inactive”. Regarding VDKWSCVDNFFSY, the amyloid nucleation score result is “inactive”.

For the substance FGNINLCMCFWKMEIECLTR, the amyloid nucleation score result was “inactive”. Regarding TVLITIIFTSRGVAVRKS, the amyloid nucleation score was -1.19 ± 1.9. Consider MLWCLSVSIDFYGGDNRMLT, for which the amyloid nucleation score entry was “inactive”.

For the substance CSVLDKEVFGGTSQDSDSYL, the amyloid nucleation score entry is “inactive”. Consider DYLVFFRPLFNSIDSHWIRS, for which the amyloid nucleation score result is “inactive”. Turning to YSRLEFKRWHVVIDSWRWMD, the amyloid nucleation score result was “inactive”.

Regarding FYRFISAMFYDWDSWIICGN, the amyloid nucleation score was found to be 0.674 ± 0.12. On to VCSDGLNWGHGVRMLWY, for which the amyloid nucleation score result is “inactive”. Substance YNYFFPYTNVYNIFSIYKAV displayed an amyloid nucleation score of 3.6 ± 0.078. As to RNWLMANS, the amyloid nucleation score entry was “inactive”.

As for HWGHVHLVIRLPVMPDSDNR, the amyloid nucleation score entry was “inactive”. For GSYLDDRGSGASIATLLVVM the value was “inactive”; for GVRLNEIGRIMIRQACGIWE, “inactive”. For CVSGDCVMIMFYLFSPVAVV, the amyloid nucleation score entry was “inactive”.

As to CCMSSIIVCYCWMYGTTKLM, the amyloid nucleation score amounted to 0.927 ± 0.1. For the substance KGTLGCNSSSHVLIAVCNAM, the amyloid nucleation score result is “inactive”. On to TCSYNSGKYNFE, for which the amyloid nucleation score result is “inactive”.

For NDFCLIYYICGS, the amyloid nucleation score was determined as 0.743 ± 0.17. In the case of VPIRECTMLSSMSWTGEPSY, the amyloid nucleation score result is “inactive”. GLCNTYCFHHCFRWVR displayed an amyloid nucleation score of 0.769 ± 0.24. In the case of WKPGRYSTKAPQLEVPERHV, the amyloid nucleation score result is “inactive”. In the case of VGGPNCIQAFS, the amyloid nucleation score result was “inactive”.

For SGGLSSLILSCFHIFIIKTY, the amyloid nucleation score entry is “inactive”.

Turning to HAEPIYFYIVRTLKDG, the amyloid nucleation score result was “inactive”. For HFKSESRFTN, the amyloid nucleation score entry was “inactive”. FIGVCNLVWMELPLDAMRFF registered an amyloid nucleation score of 1.36 ± 0.11.

For the substance GVDSARQRSDHVNRERSSGC, the amyloid nucleation score result is “inactive”. Regarding CNISSFNT, the amyloid nucleation score entry was “inactive”.

Turning to LCLLYIGTSTIYGHECPDKT, the amyloid nucleation score entry is “inactive”. For HFVVKV the value was 1.27 ± 0.089. Take CVGVF: the amyloid nucleation score result is “inactive”. Turning to LPAEMELVWHRRMNLP, the amyloid nucleation score entry was “inactive”. For the substance GHNVQGNRLMITYDLNIVGS, the amyloid nucleation score entry was “inactive”. For the substance FYSAISVAAYIEMTWESVDM, the amyloid nucleation score result is “inactive”. As for FGEYKMISVEYLVLEIVRYM, the amyloid nucleation score result was “inactive”. Substance LVVLLFYFCYSHGYDEKVQW had an amyloid nucleation score of 0.996 ± 0.12. YKIYIFFGTVYMGVDRDQIG yielded an amyloid nucleation score of 2.89 ± 0.063. As for SAIFDGEQERSRDMLL, the amyloid nucleation score result was “inactive”. As to VNFFGR, the amyloid nucleation score result is “inactive”. Turning to FFSTQAFLDLAHTRFVNPLG, the amyloid nucleation score entry is “inactive”. IIPVTSRDYSRKPYPTLERV: the amyloid nucleation score result was “inactive”. For NVFFIRNNQTTGRLKFWCQV the value was 0.958 ± 0.12. As to CMRGWNSRVE, the amyloid nucleation score entry was “inactive”. Take SNIDCLFNNVLCWIVFEWC: the amyloid nucleation score was found to be 1.07 ± 0.11. Consider KSSSAYNRSDHGLMLDRRTQ, for which the amyloid nucleation score entry was “inactive”. Take HFRIKNTCFKRCLSVESRKY: the amyloid nucleation score entry is “inactive”. For SIRLGNNSWPVATSVKWHSV the value was “inactive”; for LVYNQVVHRFLTLVFLSYMS, “inactive”.

In the case of SWRPAICPLLVMKL, the amyloid nucleation score result is “inactive”. The substance SVDVTFSVYHY showed an amyloid nucleation score of 0.702 ± 0.19. On to KSICELVIRRNFVSLNIATY, for which the amyloid nucleation score is -0.336 ± 0.7. Consider HAFFSADSWGNDIELFIYNG, for which the amyloid nucleation score result was “inactive”. The substance KLLLYMMYNRYLPM displayed an amyloid nucleation score of 0.528 ± 0.32. Take KYVAKFSSLILTFL: the amyloid nucleation score result is “inactive”. Consider SLLYFLRNVKC, for which the amyloid nucleation score result is “inactive”. Turning to NCHAGPYEVYLVVGPELLLK, the amyloid nucleation score result was “inactive”. Consider PYAPVWKRGRNYFTNSFLYM, for which the amyloid nucleation score result was “inactive”. As for PWMHLYRHAMFISAHLRYSC, the amyloid nucleation score entry was “inactive”.

As for VCNMRVYI, the amyloid nucleation score result is “inactive”.

Regarding PITMLE, the amyloid nucleation score result was “inactive”.

For the substance NPFRGFLTIQCRPILRFPDK, the amyloid nucleation score result was “inactive”. Regarding VTCCLLFLDCGVGSRMMLGL, the amyloid nucleation score is -0.356 ± 0.98. In turn, THHRPWWYHSEVGVRCMNEV displayed an amyloid nucleation score of 0.049 ± 0.96. For FCMALRKRNFGRFMSKSKEY the value was “inactive”; for FTNFDNFSFYASWLCG, “inactive”. Consider RCMIVASFYLSLIWKI, for which the amyloid nucleation score entry was “inactive”. Substance HYRIESTVLE returned an amyloid nucleation score of -0.772 ± 0.8. Turning to SEWKNTRNTHVLWYTSDSAT, the amyloid nucleation score entry is “inactive”. In the case of LSYFYKVPLDTAYMW, the amyloid nucleation score came out at 1.07 ± 0.12. For RNSMGVILKVCLGRN the value was 1.66 ± 0.091.

For the substance LQPGMDFSCRFKRLTLNMVH, the amyloid nucleation score is -0.38 ± 0.88.

As for LAQMVNGRITDHYTLFRSRT, the amyloid nucleation score result was “inactive”. For the substance VQLFSQNALPMFNSWKYYDH, the amyloid nucleation score result was “inactive”. Consider FWSFRPGHITLSIGHTRIAG, for which the amyloid nucleation score entry is “inactive”. The value for HISYNHIGEYVKKSDFECSN was “inactive”; that for VSNMCVGMKLCFSDNHYREL was 1.78 ± 0.067. For the substance IYRNKSTWWYWAWLVRNPML, the amyloid nucleation score entry was “inactive”.

RGVIPLNSKCKL: the amyloid nucleation score entry is “inactive”.

With GGALAKNHILCR, the amyloid nucleation score entry was “inactive”.

For TVIVCVTFLRGWVSSACGLS, the amyloid nucleation score came to 0.045 ± 0.8. With SRVFARFDEEDRDNSRKRTV, the amyloid nucleation score entry is “inactive”.

Take SLLDGTYYNTI: the amyloid nucleation score result was “inactive”.

On to LFDMLMHTSPC, for which the amyloid nucleation score result is “inactive”. Turning to CVLSVEYGHNQEDAITMRCE, the amyloid nucleation score result is “inactive”. For MACKLSTRKSSNWGKHLLCY, the amyloid nucleation score entry was “inactive”. For the substance VYQLIYVTGCQNAVRE, the amyloid nucleation score came out at 0.674 ± 0.32.

ICYTYNGPRSSVGVVLLGQ: the amyloid nucleation score result is “inactive”. In the case of GRARNHHRKNRGIGL, the amyloid nucleation score entry is “inactive”. Regarding STLQVVEKPKIAPSLRCDSC, the amyloid nucleation score was -0.169 ± 0.51. For the substance DKDMNEQVS, the amyloid nucleation score result is “inactive”.

With ELFDWTFLFPDSSINMWK, the amyloid nucleation score result is “inactive”. YVRLWVEDWETFSKMGSQIL: the amyloid nucleation score result is “inactive”. In the case of CPAYMYCTGMSVNTCPGKGG, the amyloid nucleation score entry is “inactive”.

As for RRAMIGIFSITVRFADNGWK, the amyloid nucleation score result is “inactive”. Take RCTGRLRTVGRSSMLEFEFV: the amyloid nucleation score result was “inactive”. In the case of ICELPNIYDVS, the amyloid nucleation score result was “inactive”. For FNNFSYCHTDARVWVMATVM, the amyloid nucleation score result is “inactive”. The value for PILELGGRSFTTWRC was “inactive”. CQYPCVMLCQC registered an amyloid nucleation score of 0.504 ± 0.19. The value for WKGWSFNLLLRGILQAIIAS was “inactive”; that for SHCYTRVLCTLVVFT was “inactive”. Turning to VLSIDTDYKFIGHASDYASI, the amyloid nucleation score was determined as 0.959 ± 0.16.

With NGSNFFDCSQFLCSFGGDVV, the amyloid nucleation score is 2.45 ± 0.072.

SLFRNS: the amyloid nucleation score entry is “inactive”. On to YIGVRGFLLYPFNRVFEVMM, for which the amyloid nucleation score result was “inactive”.

For the substance YCYFFLGLCTYKSQYNGLRL, the amyloid nucleation score result was “inactive”.

Consider MLNSLFAMNTILKW, for which the amyloid nucleation score turned out to be 0.876 ± 0.083. Consider KVVVKEIQILVGSAGSKRMS, for which the amyloid nucleation score came out at 0.638 ± 0.25.

Consider PRTCMATSGPSGGHKSLFGF, for which the amyloid nucleation score result is “inactive”. For RLKCHNNMNYSSYDLH, the amyloid nucleation score result is “inactive”. Regarding MYWTNRHLQNIFWVKRNCGM, the amyloid nucleation score entry is “inactive”. The value for LDSGFICMTELIGVVPH was “inactive”; that for SVWFGEIRNMGLIEEENRDW was “inactive”. As for LFPSADLATITG, the amyloid nucleation score entry is “inactive”. As for RGQFICRCGVARPV, the amyloid nucleation score result is “inactive”.

On to ATTNKLIYSHMVGKMLTSSF, for which the amyloid nucleation score entry is “inactive”. For the substance NTNRLFNSLRTKLGFCFYSF, the amyloid nucleation score entry was “inactive”. For the substance LSVRSTLARLPSGVIMMRSM, the amyloid nucleation score result is “inactive”. With SDGHFLCV, the amyloid nucleation score entry was “inactive”.
